These results are taken from article PMC6208778, “eIF2A, an initiator tRNA carrier refractory to eIF2α kinases, functions synergistically with eIF5B” (Cellular and Molecular Life Sciences: CMLS, 2018).

The target in experiment [1] is T1, GST-fused ΔeIF5B(587–1220) (UniProt O60841 587-1220).
T1 construct: eukaryotic initiation factor 5B (eIF5B), residues 587–1220, lacking the N-terminal region; also called GST–eIF5B; GST–eIF5B (587–1220); source: E. coli BL21, purified
T1 sequence (looked up): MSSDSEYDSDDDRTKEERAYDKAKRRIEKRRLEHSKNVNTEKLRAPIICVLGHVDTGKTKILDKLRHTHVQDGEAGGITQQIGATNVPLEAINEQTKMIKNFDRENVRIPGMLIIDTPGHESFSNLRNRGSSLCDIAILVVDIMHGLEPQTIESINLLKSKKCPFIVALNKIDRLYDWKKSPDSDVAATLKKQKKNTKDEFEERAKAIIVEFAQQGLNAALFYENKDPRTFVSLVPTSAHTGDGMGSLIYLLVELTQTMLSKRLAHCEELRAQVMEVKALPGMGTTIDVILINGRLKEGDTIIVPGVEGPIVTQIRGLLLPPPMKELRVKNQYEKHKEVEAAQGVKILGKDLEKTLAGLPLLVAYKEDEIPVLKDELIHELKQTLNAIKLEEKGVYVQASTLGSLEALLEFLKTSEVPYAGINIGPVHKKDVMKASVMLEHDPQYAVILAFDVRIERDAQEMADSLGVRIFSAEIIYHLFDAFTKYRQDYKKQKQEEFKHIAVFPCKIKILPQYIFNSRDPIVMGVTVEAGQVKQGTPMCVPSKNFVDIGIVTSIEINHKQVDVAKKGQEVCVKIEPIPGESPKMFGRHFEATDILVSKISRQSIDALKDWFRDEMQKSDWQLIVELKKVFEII
Kind of experiment: pull-down; GST pull-down with recombinant proteins purified from E. coli extracts; GST fusions as bait, His–eIF2A detected by western blotting with anti-His. To be noted: both partners purified.

In experiment [2] the target is T2, His-tagged eIF5B (587–1220) (UniProt O60841 587-1220).
T2 construct: eIF5B, residues 587–1220; The methods describe only the GST-fused eIF5B; also called purified eIF5B; source: purified
T2 sequence (looked up): T1 sequence (looked up)
Kind of experiment: co-IP; purified His-tagged eIF5B (587–1220) and GST-fused eIF2A (462–501) mixed; the former precipitated with an anti-His-conjugated resin; western blotting with anti-GST. To be noted: both partners purified. In general terms: In western blotting, separated proteins are transferred to a membrane and probed.

B1: His-tagged eIF2A (natural protein, human, UniProt Q9BY44 1-585, looked up)
chain: MAPSTPLLTVRGSEGLYMVNGPPHFTESTVFPRESGKNCKVCIFSKDGTLFAWGNGEKVNIISVTNKGLLHSFDLLKAVCLEFSPKNTVLATWQPYTTSKDGTAGIPNLQLYDVKTGTCLKSFIQKKMQNWCPSWSEDETLCARNVNNEVHFFENNNFNTIANKLHLQKINDFVLSPGPQPYKVAVYVPGSKGAPSFVRLYQYPNFAGPHAALANKSFFKADKVTMLWNKKATAVLVIASTDVDKTGASYYGEQTLHYIATNGESAVVQLPKNGPIYDVVWNSSSTEFCAVYGFMPAKATIFNLKCDPVFDFGTGPRNAAYYSPHGHILVLAGFGNLRGQMEVWDVKNYKLISKPVASDSTYFAWCPDGEHILTATCAPRLRVNNGYKIWHYTGSILHKYDVPSNAELWQVSWQPFLDGIFPAKTITYQAVPSEVPNEEPKVATAYRPPALRNKPITNSKLHEEEPPQNMKPQSGNDKPLSKTALKNQRKHEAKKAAKQEARSDKSPDLAPTPAPQSTPRNTVSQSISGDPEIDKKIKNLKKKLKAIEQLKEQAATGKQLEKNQLEKIQKETALLQELEDLELGI
notes: eukaryotic initiation factor 2A (eIF2A); also called His–eIF2A; eukaryotic initiation factor 2A; source: E. coli M15 (plasmid pQE31/His–eIF2A), purified
Turning to B1, in experiment [1], the binding result was “binds”.

B2: GST–eIF2A (462–501) (domain or fragment, human, UniProt Q9BY44 462-501, looked up)
chain: HEEEPPQNMKPQSGNDKPLSKTALKNQRKHEAKKAAKQEA
notes: also called M domain; source: E. coli BL21, purified
On to B2, for which, in experiment [2], the binding result is listed as “binds”.
